Data on 1 substance can be found in paper PMC10958106.

This experiment has as its target AP2 core GST (α2 trunk, β2 trunk and μ2 subunit) (UniProt O94973). Put plainly: pull-down; AP2 core GST (or empty GST) bound to glutathione resin, incubated 3 h at 4 °C with extracts of HEK293 cells transfected with the receptor with or without HPV-16 E7; lysis buffer 50 mM HEPES pH 7.4, 150 mM NaCl, 1 mM MgCl2, 1% Triton X-100; Western blot.
UniProt O94973, sequence (O94973 whole entry, chain 1 of 3): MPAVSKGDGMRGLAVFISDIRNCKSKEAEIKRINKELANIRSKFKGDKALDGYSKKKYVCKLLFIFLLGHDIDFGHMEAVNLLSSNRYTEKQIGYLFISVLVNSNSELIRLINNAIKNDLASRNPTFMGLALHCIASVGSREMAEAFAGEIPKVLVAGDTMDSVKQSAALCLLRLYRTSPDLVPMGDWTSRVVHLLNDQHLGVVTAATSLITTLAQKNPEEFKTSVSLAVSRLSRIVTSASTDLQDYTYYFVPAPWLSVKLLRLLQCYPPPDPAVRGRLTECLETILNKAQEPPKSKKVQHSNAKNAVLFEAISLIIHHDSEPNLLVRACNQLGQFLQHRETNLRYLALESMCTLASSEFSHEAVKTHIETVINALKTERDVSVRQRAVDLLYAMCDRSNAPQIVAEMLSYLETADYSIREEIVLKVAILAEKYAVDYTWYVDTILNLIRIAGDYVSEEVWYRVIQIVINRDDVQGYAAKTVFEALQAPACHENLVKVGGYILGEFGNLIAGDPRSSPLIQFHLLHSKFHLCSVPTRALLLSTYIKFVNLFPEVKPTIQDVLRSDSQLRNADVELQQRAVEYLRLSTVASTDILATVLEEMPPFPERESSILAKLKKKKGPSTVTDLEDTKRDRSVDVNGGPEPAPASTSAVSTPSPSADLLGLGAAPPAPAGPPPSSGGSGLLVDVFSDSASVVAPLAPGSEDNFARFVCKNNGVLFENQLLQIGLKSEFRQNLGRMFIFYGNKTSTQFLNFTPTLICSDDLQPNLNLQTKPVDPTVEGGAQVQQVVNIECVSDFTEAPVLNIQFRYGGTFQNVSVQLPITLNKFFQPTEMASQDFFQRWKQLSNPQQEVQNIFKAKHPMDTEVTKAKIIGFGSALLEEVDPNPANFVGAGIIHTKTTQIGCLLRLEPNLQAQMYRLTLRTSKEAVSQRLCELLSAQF
UniProt O94973, sequence (P63010 whole entry, chain 2 of 3, further chain): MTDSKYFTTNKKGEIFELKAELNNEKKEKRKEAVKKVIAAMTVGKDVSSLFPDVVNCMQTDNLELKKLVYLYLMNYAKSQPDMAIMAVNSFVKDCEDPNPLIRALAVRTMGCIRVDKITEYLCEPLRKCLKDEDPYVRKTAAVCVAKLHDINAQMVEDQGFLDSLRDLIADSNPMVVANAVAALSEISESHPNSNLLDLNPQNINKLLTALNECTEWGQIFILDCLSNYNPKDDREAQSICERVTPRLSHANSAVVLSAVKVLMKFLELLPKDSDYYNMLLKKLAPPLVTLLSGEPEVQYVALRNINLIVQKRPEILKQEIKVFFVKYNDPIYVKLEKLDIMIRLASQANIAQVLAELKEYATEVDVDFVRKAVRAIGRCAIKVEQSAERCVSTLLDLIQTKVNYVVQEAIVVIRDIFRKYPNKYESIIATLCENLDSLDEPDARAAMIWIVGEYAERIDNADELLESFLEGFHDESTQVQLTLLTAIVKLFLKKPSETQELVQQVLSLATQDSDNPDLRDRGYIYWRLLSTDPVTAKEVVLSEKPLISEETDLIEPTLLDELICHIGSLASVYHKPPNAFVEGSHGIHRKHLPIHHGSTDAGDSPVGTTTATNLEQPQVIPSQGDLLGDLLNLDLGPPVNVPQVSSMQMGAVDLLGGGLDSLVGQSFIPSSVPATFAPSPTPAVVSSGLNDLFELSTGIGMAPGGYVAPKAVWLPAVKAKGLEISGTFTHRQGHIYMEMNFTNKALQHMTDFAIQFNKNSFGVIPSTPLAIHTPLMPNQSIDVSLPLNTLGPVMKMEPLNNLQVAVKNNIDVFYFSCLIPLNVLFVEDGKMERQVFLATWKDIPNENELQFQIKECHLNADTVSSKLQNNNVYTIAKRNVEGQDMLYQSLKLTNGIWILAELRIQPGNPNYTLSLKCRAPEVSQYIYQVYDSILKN
UniProt O94973, sequence (Q96CW1 whole entry, chain 3 of 3, further chain): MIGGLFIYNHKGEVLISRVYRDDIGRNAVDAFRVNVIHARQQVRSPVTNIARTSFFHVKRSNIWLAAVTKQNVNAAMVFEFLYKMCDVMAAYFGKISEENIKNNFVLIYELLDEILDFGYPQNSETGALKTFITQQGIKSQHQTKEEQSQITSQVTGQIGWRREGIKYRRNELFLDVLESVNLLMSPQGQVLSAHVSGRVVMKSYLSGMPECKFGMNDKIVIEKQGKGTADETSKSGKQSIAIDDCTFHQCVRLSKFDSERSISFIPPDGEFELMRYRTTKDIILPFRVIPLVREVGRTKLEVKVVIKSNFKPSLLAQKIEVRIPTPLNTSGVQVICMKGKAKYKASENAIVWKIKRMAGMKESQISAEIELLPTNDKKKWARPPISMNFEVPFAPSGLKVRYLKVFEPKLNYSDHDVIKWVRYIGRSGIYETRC

Consider “HPV-16 E7-FLAG/HA (from UniProt P03129 1-98) (natural protein)”, for which the percent reduction of the binding of CD109 to the AP2 core in the presence of E7 is 50%, the percent reduction of the binding of EGFR to the AP2 core in the presence of E7 is more than 70% and the percent reduction of the binding of MET to the AP2 core in the presence of E7 was found to be 50%.
